Assay results published in paper PMC5667739 (PLoS Pathogens, 2017).

B1: Nano-27 (VHH)
VHH: QVQLQESGGGLVQPGGSLRLSCAASGTIFSRNIMGWYRQAPGKERELVASIYSDRSTWYAESVEGRFTISRDNVKNTLYLQMNSLKPEDTAMYYCRDRTLGSWGQGTQVTVSS
B2: Nano-32 (VHH)
VHH: QVQLQESGGGLVQPGGSLRLSCAASGFTLGYYPIGWFRQAPGKGLEGVSCISGSGGSANYAASVKGRFTISRDNAKNTVYLQMNSLKPEDTAIYYCAADLSSLTTVQAMCVIPRPGFSAKAYDYWGLGTQVTVSS
B3: Nano-4 (VHH)
VHH: QVQLQESGGGLVQPGGSLRLFCAASGFTFSSYAMRWYRQAPGKERELVAAITSAGGSTHYADSVKERFTISRDNAKNTMYLQMNSLKPEDTAVYYCNARRDYGDSWFTAGGGYWGQGTQVTVSS
B4: Nano-42 (VHH)
VHH: QVQLQESGGGLVQPGGSLRLSCAASGSVSRTYVMGWYRQTPGNQRELVATITSVGSTNYADSLKGRFTISRENAENTVYLQMNSLKPEDTAIYYCKYIRYSPIHAPLDYWGQGTQVTVSS
B5: Nano-14 (VHH)
VHH: QVQLQESGGGLVQSGGSLRLSCAASRNINSMHVVGWYRQAPGNQRELVASITDDGSTDYVDSVKGRFTISRDIAENTVYLQMNSLNPEDTAVYYCKGTIVVFTTPMHYWGKGTQVTVSS
notes: also called N14; source: E. coli WK6 (pHEN6C vector), purified
B6: Nano-26 (VHH)
VHH: QVQLQESGGGLVQPGGSLRLSCTAPRIIFFMYDVGWYRQAPEKQRELVAQINSDVSTKYADSVKGRFTISRDNAKRTVYLQMNDLKPEDAAVYYCNVRRASADYWGQGTQVTVSS
notes: also called N26; source: E. coli WK6 (pHEN6C vector), purified

The binders below were run against T1, GII.10 P domain (Vietnam026) (norovirus GII.10 (Vietnam026)) (assay: ITC). Settings: both partners purified.
T1 construct: source: E. coli, purified

| Binder | stoichiometry N |
| --- | --- |
| B1 | 1 Nanobody per P domain monomer |
| B2 | 1 Nanobody per P domain monomer |
| B3 | 1 Nanobody per P domain monomer |
| B4 | 1 Nanobody per P domain monomer |
| B5 | 0.5 Nanobody per P domain monomer |
| B6 | 1 Nanobody per P domain monomer |

The binders below were run against T1, GII.10 P domain (Vietnam026) (assay: ELISA). Settings: both partners purified.

| Binder | lowest Nanobody concentration that detected the antigen (direct ELISA) |
| --- | --- |
| B3 | 20 ng/mL |
| B4 | 20 ng/mL |
| B5 | 20 ng/mL |
| B6 | 20 ng/mL |

Target: T1, GII.10 P domain (Vietnam026)
Test: ITC
Settings: both partners purified
Remark: another data set of the same source

| Binder | Kd | dH |
| --- | --- | --- |
| B1 | 9.5 nM | -8.1 kcal/mol |
| B2 | 60 nM | 5 kcal/mol |
| B3 | 35 nM | -12 kcal/mol |
| B4 | 0.809 nM | -9.84 kcal/mol |
| B5 | 10.4 nM | -22 kcal/mol |
| B6 | 3.2 nM | -10 kcal/mol |
